One experiment deals with CCM1-K2. The experiment is described as follows: ITC; GST-tagged fragments from PTB domains and HIS-tagged NPXY motifs, purified; Table 5 heads CCM1-K8 and CCM1-K2 as 'Ligand'; conditions not stated (as in ref. 20). For orientation: Isothermal titration calorimetry measures the heat released or taken up as one component is titrated into another.
The target in experiment [1] is CCM1-K8. Described as above.
Experiment [2] has as its target CCM1-K8. As to the kind of experiment: BLI; GST-tagged fragments from PTB domains and HIS-tagged NPXY motifs, purified; Table 5 heads CCM1-K8 as 'Ligand'; who was immobilised and the conditions are not stated (as in ref. 20). For orientation: Biolayer interferometry detects binding as a change in optical thickness at a sensor tip.

Among the data in paper PMC6825194 are Kd values, retold here.

One may read the Kd as the free concentration of one partner at which half of the binding sites on the other are occupied at equilibrium, for simple one-to-one binding. Read a low Kd as a tighter complex.

In the case of “CCM2-EX6 (from UniProt Q9BSQ5 1-444) (domain or fragment)”, the Kd with CCM1-K2 was 6.45 µM; with CCM1-K8 [1], 1.99 µM; with CCM1-K8 [2], 4.06 µM.
